How the values were obtained:
[1] = target: T1, purified recombinant YspE2, full length (Yersinia pestis, UniProt A0AAP0VE47 1-605); assay: SPR; Biacore T200; […] (0–20 μM) […] (20 mM HEPES pH 7.4, 150 mM NaCl, 3.4 mM EDTA, 0.005% P20); 25 °C; conditions: both partners purified
T1 sequence: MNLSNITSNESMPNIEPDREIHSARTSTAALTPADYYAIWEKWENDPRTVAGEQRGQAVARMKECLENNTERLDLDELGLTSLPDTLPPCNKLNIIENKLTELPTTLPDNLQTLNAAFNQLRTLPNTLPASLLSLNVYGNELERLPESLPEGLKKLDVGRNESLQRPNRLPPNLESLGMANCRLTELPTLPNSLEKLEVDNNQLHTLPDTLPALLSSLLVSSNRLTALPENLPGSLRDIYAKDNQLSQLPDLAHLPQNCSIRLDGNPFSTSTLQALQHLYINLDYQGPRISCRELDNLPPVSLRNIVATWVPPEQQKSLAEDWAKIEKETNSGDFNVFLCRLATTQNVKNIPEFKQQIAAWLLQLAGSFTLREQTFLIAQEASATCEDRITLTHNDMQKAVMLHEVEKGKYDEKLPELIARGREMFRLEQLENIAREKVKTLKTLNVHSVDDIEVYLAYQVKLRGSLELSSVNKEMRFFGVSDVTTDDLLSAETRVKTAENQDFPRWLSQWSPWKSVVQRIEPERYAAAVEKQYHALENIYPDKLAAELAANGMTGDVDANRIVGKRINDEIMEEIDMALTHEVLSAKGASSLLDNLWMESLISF

[2] = target: T2, purified recombinant YspE1, full length (Yersinia pestis, UniProt A0A3N4BII9 1-626); assay: as above; conditions: both partners purified
T2 sequence: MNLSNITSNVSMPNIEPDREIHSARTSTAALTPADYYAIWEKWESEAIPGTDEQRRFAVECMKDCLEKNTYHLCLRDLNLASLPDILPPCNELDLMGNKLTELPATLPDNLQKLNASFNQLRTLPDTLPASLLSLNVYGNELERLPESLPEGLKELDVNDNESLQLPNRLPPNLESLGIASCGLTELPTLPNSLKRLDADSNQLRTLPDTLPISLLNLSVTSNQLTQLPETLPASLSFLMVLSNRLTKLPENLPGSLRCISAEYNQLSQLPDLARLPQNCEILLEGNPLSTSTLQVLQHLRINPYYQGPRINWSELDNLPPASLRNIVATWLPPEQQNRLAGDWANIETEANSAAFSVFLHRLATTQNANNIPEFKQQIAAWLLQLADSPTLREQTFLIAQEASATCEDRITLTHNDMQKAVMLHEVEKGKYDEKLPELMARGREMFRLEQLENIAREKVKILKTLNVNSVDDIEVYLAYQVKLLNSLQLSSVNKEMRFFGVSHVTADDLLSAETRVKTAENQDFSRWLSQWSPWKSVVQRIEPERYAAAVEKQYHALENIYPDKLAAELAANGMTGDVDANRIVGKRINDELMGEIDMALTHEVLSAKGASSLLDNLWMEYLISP

B1: purified recombinant human guanylate-binding protein 1 (hGBP1) (natural protein, UniProt P32455 1-592, looked up)
chain: MASEIHMTGPMCLIENTNGRLMANPEALKILSAITQPMVVVAIVGLYRTGKSYLMNKLAGKKKGFSLGSTVQSHTKGIWMWCVPHPKKPGHILVLLDTEGLGDVEKGDNQNDSWIFALAVLLSSTFVYNSIGTINQQAMDQLYYVTELTHRIRSKSSPDENENEVEDSADFVSFFPDFVWTLRDFSLDLEADGQPLTPDEYLTYSLKLKKGTSQKDETFNLPRLCIRKFFPKKKCFVFDRPVHRRKLAQLEKLQDEELDPEFVQQVADFCSYIFSNSKTKTLSGGIQVNGPRLESLVLTYVNAISSGDLPCMENAVLALAQIENSAAVQKAIAHYEQQMGQKVQLPTETLQELLDLHRDSEREAIEVFIRSSFKDVDHLFQKELAAQLEKKRDDFCKQNQEASSDRCSALLQVIFSPLEEEVKAGIYSKPGGYRLFVQKLQDLKKKYYEEPRKGIQAEEILQTYLKSKESMTDAILQTDQTLTEKEKEIEVERVKAESAQASAKMLQEMQRKNEQMMEQKERSYQEHLKQLTEKMENDRVQLLKEQERTLALKLQEQEQLLKEGFQKESRIMKNEIQDLQTKMRRRKACTIS
notes: also called pSUMO-hGBP1
Kd [1]: 1500 nM
Kd [2]: 370 nM

Reference: article PMC9352726 (Nature Communications, 2022)
